Earlier results, collected in PMC9254699 (Biomaterials science, 2021).

Assays:
TGF-β1 [1] = biological target: T1, TGF-β1 (Homo sapiens, UniProt P01137)
TGF-β1 [2] = biological target: T1, TGF-β1; remark: listed apart in the source

T1 sequence (P01137 279-390 limits assumed, species assumed): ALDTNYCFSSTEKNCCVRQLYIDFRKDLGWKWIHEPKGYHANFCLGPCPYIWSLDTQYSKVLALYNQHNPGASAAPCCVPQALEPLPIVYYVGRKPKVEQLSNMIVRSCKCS

| activity against TGF-β1, preclinical anti-fibrotic (TGF-β1 [2]) | Molecule | direct binding to TGF-β1 or its receptors (TGF-β1 [1]) |
| --- | --- | --- |
| activity against TGF-β1 | decorin: molecule with activity against TGF-β1, explored preclinically as anti-fibrotic (protein, UniProt P07585 31-359, looked up) Decorin: DEASGIGPEVPDDRDFEPSLGPVCPFRCQCHLRVVQCSDLGLDKVPKDLPPDTTLLDLQNNKITEIKDGDFKNLKNLHALILVNNKISKVSPGAFTPLVKLERLYLSKNQLKELPEKMPKTLQELRAHENEITKVRKVTFNGLNQMIVIELGTNPLKSSGIENGAFQGMKKLSYIRIADTNITSIPQGLPPSLTELHLDGNKISRVDAASLKGLNNLAKLGLSFNSISAVDNGSLANTPHLRELHLDNNKLTRVPGGLAEHKYIQVVYLHNNNISVVGSSDFCPPGHNTKKASYSGVSLFSNPVQYWEIQPSTFRCVYVRSAIQLGNYK | do not directly bind TGF-β1 or its receptors |
| activity against TGF-β1 | γ-interferon: molecule with activity against TGF-β1, explored preclinically as anti-fibrotic (protein, UniProt P01579 24-161, looked up) Interferon gamma: QDPYVKEAENLKKYFNAGHSDVADNGTLFLGILKNWKEESDRKIMQSQIVSFYFKLFKNFKDDQSIQKSVETIKEDMNVKFFNSNKKKRDDFEKLTNYSVTDLNVQRKAIHELIQVMAELSPAAKTGKRKRSQMLFRG | do not directly bind TGF-β1 or its receptors |
